Assay results: the supplement of paper PMC10567573

B1: CLK3 (parent)
chain: FGEDYYGPSRSRHRRRSRERGPYR

Variants of: B1
Assay: protein stability index of a GFP-peptide fusion (GPS, HEK-293T) (PSI 1-6); higher = more stable
Details: c terminus: a fixed tail appended
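Also: lentivirally expressed fusions sorted by FACS into six bins by GFP to DsRed ratio, PSI derived from sequencing read proportions per bin multiplied by bin number.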

Compared with FGEDYYGPSRSQHRRRSRERGPYR [R12Q], FGEDYYGPSRSIHRRRSRERGPYR [R12I] is lower in protein stability index: 2.31 for the first, 1.95 for the second.

Going from FGEDYYGPSRSNHRRRSRERGPYR [R12N] to FGEDYYGPSRSVHRRRSRERGPYR [R12V], the protein stability index falls from 2.52 to 2.11.

Compared with FGEDYYGPSRSAHRRRSRERGPYR [R12A], FGEDYYGPSRSPHRRRSRERGPYR [R12P] is higher in protein stability index: 2.13 for the first, 2.39 for the second.

Going from FGEDYYGPSRSTHRRRSRERGPYR [R12T] to FGEDYYGPSRSSHRRRSRERGPYR [R12S], the protein stability index falls from 2.27 to 2.1.

First: FGEDYYGPSRSKHRRRSRERGPYR [R12K]
Second: FGEDYYGPSRSLHRRRSRERGPYR [R12L]
The protein stability index of the first is higher: 3.19 for the first, 1.48 for the second.

First: FGEDYYGPSRSGHRRRSRERGPYR [R12G]
Second: FGEDYYGPSRSDHRRRSRERGPYR [R12D]
The protein stability index of the first is higher: 2.16 for the first, 1.86 for the second.

Going from FGEDYYGPSRSWHRRRSRERGPYR [R12W] to FGEDYYGPSRSHHRRRSRERGPYR [R12H], the protein stability index rises from 2.44 to 2.51.

First: FGEDYYGPSRSMHRRRSRERGPYR [R12M]
Second: FGEDYYGPSRSFHRRRSRERGPYR [R12F]
The protein stability index of the first is lower: 2.03 for the first, 2.18 for the second.

Going from FGEDYYGPSRSRHRYRSRERGPYR [R15Y] to FGEDYYGPSRSRHRPRSRERGPYR [R15P], the protein stability index falls from 2.69 to 2.54.

First: FGEDYYGPSRSRHRWRSRERGPYR [R15W]
Second: FGEDYYGPSRSRHRVRSRERGPYR [R15V]
The protein stability index of the first is higher: 2.11 for the first, 2.1 for the second.

Going from FGEDYYGPSRSRHRLRSRERGPYR [R15L] to FGEDYYGPSRSRHRFRSRERGPYR [R15F], the protein stability index falls from 2.23 to 1.85.

Going from FGEDYYGPSRSRHRQRSRERGPYR [R15Q] to FGEDYYGPSRSRHRNRSRERGPYR [R15N], the protein stability index rises from 1.98 to 2.47.

First: FGEDYYGPSRSRHRCRSRERGPYR [R15C]
Second: FGEDYYGPSRSRHRERSRERGPYR [R15E]
The protein stability index of the first is lower: 1.57 for the first, 1.95 for the second.

First: FGEDYYGPSRSRHRHRSRERGPYR [R15H]
Second: FGEDYYGPSRSRHRTRSRERGPYR [R15T]
The protein stability index of the first is higher: 2.18 for the first, 1.91 for the second.

Compared with FGEDYYGPSRSRHRSRSRERGPYR [R15S], FGEDYYGPSRSRHRDRSRERGPYR [R15D] is higher in protein stability index: 2.04 for the first, 2.34 for the second.

Going from FGEDYYGPSRSRHRIRSRERGPYR [R15I] to FGEDYYGPSRSRHRARSRERGPYR [R15A], the protein stability index falls from 2.43 to 2.18.

Compared with FGEDYYGPSRSRHRMRSRERGPYR [R15M], FGEDYYGPSRSRHRGRSRERGPYR [R15G] is lower in protein stability index: 3.55 for the first, 1.98 for the second.

First: FGEDYYGPSRSRHRKRSRERGPYR [R15K]
Second: FGEDYYGPHRSRHRRRSRERGPYR [S9H]
The protein stability index of the first is higher: 3.27 for the first, 2.33 for the second.

Going from FGEDYYGPNRSRHRRRSRERGPYR [S9N] to FGEDYYGPDRSRHRRRSRERGPYR [S9D], the protein stability index rises from 2.82 to 2.84.

First: FGEDYYGPLRSRHRRRSRERGPYR [S9L]
Second: FGEDYYGPCRSRHRRRSRERGPYR [S9C]
The protein stability index of the first is higher: 2.55 for the first, 2.35 for the second.

First: FGEDYYGPFRSRHRRRSRERGPYR [S9F]
Second: FGEDYYGPTRSRHRRRSRERGPYR [S9T]
The protein stability index of the first is lower: 2.21 for the first, 2.58 for the second.

First: FGEDYYGPGRSRHRRRSRERGPYR [S9G]
Second: FGEDYYGPKRSRHRRRSRERGPYR [S9K]
The protein stability index of the first is higher: 3.16 for the first, 2.74 for the second.

Compared with FGEDYYGPPRSRHRRRSRERGPYR [S9P], FGEDYYGPERSRHRRRSRERGPYR [S9E] is higher in protein stability index: 2.56 for the first, 2.73 for the second.

Compared with FGEDYYGPRRSRHRRRSRERGPYR [S9R], FGEDYYGPMRSRHRRRSRERGPYR [S9M] is lower in protein stability index: 3 for the first, 1.69 for the second.

Going from FGEDYYGPWRSRHRRRSRERGPYR [S9W] to FGEDYYGPQRSRHRRRSRERGPYR [S9Q], the protein stability index rises from 2.17 to 2.63.

Going from FGEDYYGPIRSRHRRRSRERGPYR [S9I] to FGEDYYGPVRSRHRRRSRERGPYR [S9V], the protein stability index falls from 2.47 to 2.38.

First: FGEDYYGPARSRHRRRSRERGPYR [S9A]
Second: FGEDYYGPYRSRHRRRSRERGPYR [S9Y]
The protein stability index of the first is lower: 2.39 for the first, 2.56 for the second.

Going from FGEDYYGPSRSRGRRRSRERGPYR [H13G] to FGEDYYGPSRSRSRRRSRERGPYR [H13S], the protein stability index rises from 2.46 to 2.52.

First: FGEDYYGPSRSRQRRRSRERGPYR [H13Q]
Second: FGEDYYGPSRSRNRRRSRERGPYR [H13N]
The protein stability index of the first is lower: 2.48 for the first, 2.55 for the second.

Compared with FGEDYYGPSRSRCRRRSRERGPYR [H13C], FGEDYYGPSRSRMRRRSRERGPYR [H13M] is higher in protein stability index: 2.29 for the first, 3.25 for the second.

Compared with FGEDYYGPSRSRDRRRSRERGPYR [H13D], FGEDYYGPSRSRLRRRSRERGPYR [H13L] is higher in protein stability index: 2.16 for the first, 2.18 for the second.

Compared with FGEDYYGPSRSRYRRRSRERGPYR [H13Y], FGEDYYGPSRSRFRRRSRERGPYR [H13F] is higher in protein stability index: 2.52 for the first, 2.64 for the second.

Going from FGEDYYGPSRSRKRRRSRERGPYR [H13K] to FGEDYYGPSRSRVRRRSRERGPYR [H13V], the protein stability index falls from 3.53 to 2.16.

Compared with FGEDYYGPSRSRPRRRSRERGPYR [H13P], FGEDYYGPSRSRTRRRSRERGPYR [H13T] is lower in protein stability index: 2.96 for the first, 2.7 for the second.

Compared with FGEDYYGPSRSRWRRRSRERGPYR [H13W], FGEDYYGPSRSRARRRSRERGPYR [H13A] is higher in protein stability index: 1.93 for the first, 2.16 for the second.

First: FGEDYYGPSRSRERRRSRERGPYR [H13E]
Second: FGEDYYGPSRSRIRRRSRERGPYR [H13I]
The protein stability index of the first is lower: 2.21 for the first, 2.78 for the second.

First: FGEDYYGPSRDRHRRRSRERGPYR [S11D]
Second: FGEDYYGPSRIRHRRRSRERGPYR [S11I]
The protein stability index of the first is higher: 2.57 for the first, 2.56 for the second.

Compared with FGEDYYGPSRMRHRRRSRERGPYR [S11M], FGEDYYGPSRGRHRRRSRERGPYR [S11G] is higher in protein stability index: 2.13 for the first, 2.58 for the second.

First: FGEDYYGPSRVRHRRRSRERGPYR [S11V]
Second: FGEDYYGPSRLRHRRRSRERGPYR [S11L]
The protein stability index of the first is higher: 2.35 for the first, 1.92 for the second.

Going from FGEDYYGPSRNRHRRRSRERGPYR [S11N] to FGEDYYGPSRWRHRRRSRERGPYR [S11W], the protein stability index rises from 2.21 to 2.3.

First: FGEDYYGPSRARHRRRSRERGPYR [S11A]
Second: FGEDYYGPSRTRHRRRSRERGPYR [S11T]
The protein stability index of the first is higher: 2.97 for the first, 2.86 for the second.

Going from FGEDYYGPSRRRHRRRSRERGPYR [S11R] to FGEDYYGPSRPRHRRRSRERGPYR [S11P], the protein stability index rises from 2.53 to 3.1.

Compared with FGEDYYGPSRFRHRRRSRERGPYR [S11F], FGEDYYGPSRKRHRRRSRERGPYR [S11K] is higher in protein stability index: 2.76 for the first, 3.18 for the second.

Compared with FGEDYYGPSRQRHRRRSRERGPYR [S11Q], FGEDYYGPSRYRHRRRSRERGPYR [S11Y] is higher in protein stability index: 2.65 for the first, 2.99 for the second.

First: FGEDYYGPSRCRHRRRSRERGPYR [S11C]
Second: FGEDYYGPSRHRHRRRSRERGPYR [S11H]
The protein stability index of the first is lower: 2.95 for the first, 3.12 for the second.

Compared with FGEDYYGPSRERHRRRSRERGPYR [S11E], FGEDYYGPSRSRHRRDSRERGPYR [R16D] is higher in protein stability index: 2.02 for the first, 2.15 for the second.

First: FGEDYYGPSRSRHRRCSRERGPYR [R16C]
Second: FGEDYYGPSRSRHRRASRERGPYR [R16A]
The protein stability index of the first is higher: 1.97 for the first, 1.87 for the second.
